Source: the supplement of paper PMC9732359
± gives the uncertainty stated by the source.

Assay: protein stability index of a GFP-peptide fusion (yeast GPS) (PSI 1-4); higher = more stable; sorted into four equal gates, so the index is relative within each strain
Summary of the method: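 For each peptide, the protein stability index sums the read frequency in every gate after multiplying it by the gate number. Read frequencies came from plasmids that were PCR-amplified from each gate and Illumina-sequenced, with reads assigned to strains by barcodes. The gates were four equal bins of GFP/Cherry fluorescence ratio applied to mid-log yeast in leucine-free medium carrying a pooled library of tiled 17-residue yeast protein peptides fused downstream of GFP on a Cherry-expressing plasmid.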

FQMNCYAKEDAFSYPRM [RPN2]
protein stability index (doa10∆): 2.53 ± 0.12
protein stability index (pdr5∆): 2.52 ± 0.078
protein stability index (san1∆): 2.48 ± 0.077
protein stability index (ubr1∆): 2.61 ± 0.047

TLDNPLLVDKDANGVSL [YJL039C/NUP192]
protein stability index (doa10∆): 3.17 ± 0.057
protein stability index (pdr5∆): 3.12 ± 0.048
protein stability index (san1∆): 3.08 ± 0.038
protein stability index (ubr1∆): 3.13 ± 0.035

LKIFLYLESLFAKQVDV [IRR1]
protein stability index (doa10∆): 2.51 ± 0.093
protein stability index (pdr5∆): 2.19 ± 0.073
protein stability index (san1∆): 2.33 ± 0.1
protein stability index (ubr1∆): 2.53 ± 0.049

SSFYINHASMDVYNREL [BRR2]
protein stability index (doa10∆): 3.02 ± 0.12
protein stability index (pdr5∆): 2.96 ± 0.1
protein stability index (san1∆): 3.04 ± 0.076
protein stability index (ubr1∆): 3.17 ± 0.09

YKLSTVVLRLYLKDNIT [GRR1]
protein stability index (doa10∆): 1.64 ± 0.06
protein stability index (pdr5∆): 1.53 ± 0.051
protein stability index (san1∆): 1.36 ± 0.081
protein stability index (ubr1∆): 1.68 ± 0.068

PDMMVDSFTMPNISHSN [SNF2]
protein stability index (doa10∆): 3.28 ± 0.11
protein stability index (pdr5∆): 2.84 ± 0.098
protein stability index (san1∆): 2.72 ± 0.087
protein stability index (ubr1∆): 3.18 ± 0.093

ENIIIVGGTTSISGFKE [ARP9]
protein stability index (doa10∆): 2.13 ± 0.092
protein stability index (pdr5∆): 2.2 ± 0.06
protein stability index (san1∆): 2.64 ± 0.07
protein stability index (ubr1∆): 2.88 ± 0.054

QIVQVLKQPPFQITLSS [SSN8]
protein stability index (doa10∆): 2.12 ± 0.062
protein stability index (pdr5∆): 2.06 ± 0.074
protein stability index (san1∆): 1.86 ± 0.094
protein stability index (ubr1∆): 2.54 ± 0.081

EKERLESLTKEISAAHN [SMC3]
protein stability index (doa10∆): 3 ± 0.26
protein stability index (pdr5∆): 3.22 ± 0.15
protein stability index (san1∆): 2.79 ± 0.13
protein stability index (ubr1∆): 3.42 ± 0.19

PVMADLNGGLQFVPELK [FAS2]
protein stability index (doa10∆): 1.78 ± 0.069
protein stability index (pdr5∆): 2.19 ± 0.076
protein stability index (san1∆): 2.07 ± 0.077
protein stability index (ubr1∆): 2.01 ± 0.056

FTQQELQKQMGIGSLTD [RPC34]
protein stability index (doa10∆): 2.22 ± 0.088
protein stability index (pdr5∆): 2.39 ± 0.11
protein stability index (san1∆): 2.33 ± 0.17
protein stability index (ubr1∆): 2.48 ± 0.11

PDSCNMQEKAAHIAKNL [YCS4]
protein stability index (doa10∆): 2.15 ± 0.15
protein stability index (pdr5∆): 1.55 ± 0.2
protein stability index (ubr1∆): 1.47 ± 0.093

NFSGLNGGITNTATNAL [YOR098C/NUP1]
protein stability index (doa10∆): 3.15 ± 0.12
protein stability index (pdr5∆): 2.91 ± 0.13
protein stability index (san1∆): 2.84 ± 0.084
protein stability index (ubr1∆): 3.34 ± 0.11

FNVEYFAKEKLTKKEKK [RPL6A]
protein stability index (doa10∆): 2.23 ± 0.084
protein stability index (pdr5∆): 1.68 ± 0.066
protein stability index (san1∆): 1.44 ± 0.12
protein stability index (ubr1∆): 1.9 ± 0.073

GLDATKLYVSHIQVNQA [RPL17A]
protein stability index (doa10∆): 2.5 ± 0.096
protein stability index (pdr5∆): 2.99 ± 0.063
protein stability index (san1∆): 3 ± 0.043
protein stability index (ubr1∆): 3.05 ± 0.05

FQIIDTLLPGLQDEVMN [RPS2]
protein stability index (doa10∆): 2.32 ± 0.082
protein stability index (pdr5∆): 1.72 ± 0.059
protein stability index (san1∆): 2.22 ± 0.091
protein stability index (ubr1∆): 2.09 ± 0.05

ITAVHVKIRATGGTRTK [RPS14A]
protein stability index (doa10∆): 1.58 ± 0.05
protein stability index (pdr5∆): 1.63 ± 0.041
protein stability index (san1∆): 1.82 ± 0.09
protein stability index (ubr1∆): 1.67 ± 0.042

RLVIKEALVERRRAFKR [RPB4]
protein stability index (doa10∆): 3.13 ± 0.29
protein stability index (pdr5∆): 2.67 ± 0.14
protein stability index (san1∆): 2.8 ± 0.22

ALETENMEIRNLRLKIL [GRR1]
protein stability index (doa10∆): 3.14 ± 0.065
protein stability index (pdr5∆): 2.9 ± 0.043
protein stability index (san1∆): 2.82 ± 0.052
protein stability index (ubr1∆): 2.7 ± 0.03

ETAQAINGWELTKAQKY [RPL17A]
protein stability index (doa10∆): 3.27 ± 0.055
protein stability index (pdr5∆): 3.35 ± 0.049
protein stability index (san1∆): 3.18 ± 0.034
protein stability index (ubr1∆): 3.28 ± 0.043

QEITTNLENHFKKSKID [SCL1]
protein stability index (doa10∆): 3.12 ± 0.089
protein stability index (pdr5∆): 3.15 ± 0.08
protein stability index (san1∆): 3.1 ± 0.06
protein stability index (ubr1∆): 3.22 ± 0.063

WDGVIPTPAIIKPKPLW [RPO21]
protein stability index (doa10∆): 1.88 ± 0.099
protein stability index (pdr5∆): 2.08 ± 0.092
protein stability index (san1∆): 2.41 ± 0.096
protein stability index (ubr1∆): 2.06 ± 0.12

KKLELPKYIDELKTRDA [SWP82]
protein stability index (doa10∆): 3.03 ± 0.097
protein stability index (pdr5∆): 3.39 ± 0.092
protein stability index (san1∆): 2.78 ± 0.077
protein stability index (ubr1∆): 3.48 ± 0.071

VLQDLRLGSKKLVEIIW [YJL039C/NUP192]
protein stability index (doa10∆): 3.25 ± 0.1
protein stability index (pdr5∆): 3.09 ± 0.16
protein stability index (san1∆): 3.15 ± 0.068
protein stability index (ubr1∆): 3.39 ± 0.14

NRRLVYSRILKSMGRKC [YCG1]
protein stability index (doa10∆): 1.41 ± 0.12
protein stability index (pdr5∆): 1.17 ± 0.084
protein stability index (san1∆): 1.3 ± 0.2
protein stability index (ubr1∆): 1.14 ± 0.067
